Changes are numbered by the printed parent chain. Like-named read-outs stand apart in the source and are kept apart here. Blank lines part the entries; values can stand above or below the molecule they belong to.
Assays:
[1] = biological target: MfArtemin-MMH (cynomolgous monkey (Macaca fascicularis)); assay: cell-based or functional assay
[2] = biological target: MfArtemin-MMH (cynomolgous monkey (Macaca fascicularis)); assay: blocking ELISA, 400 pM mfARTN.mmh binding to plate-coated hGFRa3.hFc
hArtemin-MMH [3] = biological target: T1, hArtemin-MMH (human); assay: blocking ELISA, 75 pM hARTN.mmh binding to plate-coated hGFRa3.hFc
T1 chain: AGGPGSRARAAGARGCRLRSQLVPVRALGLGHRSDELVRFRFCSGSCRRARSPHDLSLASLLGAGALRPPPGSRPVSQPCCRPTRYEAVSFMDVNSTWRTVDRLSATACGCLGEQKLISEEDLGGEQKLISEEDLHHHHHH

hArtemin-MMH [4] = biological target: T1, hArtemin-MMH; assay: SPR Biacore T200, hArtemin-MMH captured by anti-myc mAb, mAb injected, 25 C
Description: (§1) The equilibrium dissociation constant (KD) for Artemin binding to each of Artemin monoclonal antibodies (mAbs) H4H33331P, H4H33335P, H4H33336P, and H4H33349P was determined using a real-time surface plasmon resonance Biacore T200 biosensor. All binding studies were performed in 10 mM HEPES, 150 mM NaCl, 3 mM EDTA, and 0.05% v/v Surfactant Tween-20, pH 7.4 (HBS-ET) running buffer at 25° C. The Biacore CM4 sensor chip surface was first derivatized by amine coupling with anti-myc mAb to capture hArtemin-MMH, MfArtemin-MMH, or mArtemin-MMH. Different concentrations of Artemin mAbs (60-2.2 nM, 3-fold serial dilution) prepared in […] running buffer were injected over the Artemin-captured surfaces for 3 min at a flow rate of 50 μL/min and their dissociation in HBS-ET running buffer was monitored for 5 minutes. At the end of each cycle, the Artemin-captured surfaces were regenerated using a 6 sec injection of 20 mM phosphoric acid.
(§2) The association rate (kₐ) and dissociation rate (kd) were determined by fitting the real-time binding sensorgrams to a 1:1 binding model with mass transport limitation using Scrubber 2.0c curve-fitting software. Binding dissociation equilibrium constant (KD) and dissociative half-life (t½) were calculated from the kinetic rates as: KD (M)=kd/kₐ, and t_{1/2} (min)=[In2/(60*kd)].

mArtemin-MMH [5] = biological target: T2, mArtemin-MMH (mouse); assay: blocking ELISA, 150 pM msARTN.mmh binding to plate-coated hGFRa3.hFc
T2 chain: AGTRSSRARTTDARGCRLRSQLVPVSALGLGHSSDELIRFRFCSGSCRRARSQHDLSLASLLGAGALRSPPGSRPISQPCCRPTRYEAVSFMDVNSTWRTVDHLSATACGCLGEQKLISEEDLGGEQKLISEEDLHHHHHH

mArtemin-MMH [6] = biological target: T2, mArtemin-MMH; assay: SPR Biacore T200, mArtemin-MMH captured by anti-myc mAb, mAb injected, 25 C
Description: as §1, §2

mArtemin-MMH [7] = biological target: T2, mArtemin-MMH; assay: cell-based or functional assay
hArtemin-MMH [8] = biological target: T1, hArtemin-MMH; assay: cell-based or functional assay
[9] = biological target: MfArtemin-MMH (cynomolgous monkey (Macaca fascicularis)); assay: SPR Biacore T200, MfArtemin-MMH captured by anti-myc mAb, mAb injected, 25 C
MfArtemin-MMH [10] = biological target: T3, MfArtemin-MMH (cynomolgous monkey (Macaca fascicularis)); assay: as above
T3 construct: also called mfARTN.mmh; mfARTN (A108-G22).mmh
T3 chain: T1 chain with A8P, V76I
Description: as §1, §2

mArtemin-MMH [11] = biological target: T2, mArtemin-MMH; assay: BLI (Octet HTX), mAb captured on AHC tips, artemin at 3.75 nM, 25 C
Description: (§3) The entire experiment was performed at 25° C. in 10 mM HEPES, 150 mM NaCl, 3 mM EDTA, 0.02% NaN3 and 0.05% v/v Surfactant Tween-20, 1 mg/mL BSA, pH7.4 (HBS-EBT) buffer with the plate shaking at a speed of 1000 rpm. Different Artemin mAbs were first captured onto anti-human antibody (AHC) coated Octet biosensor tips (Fortebio Inc, #18-5064) by submerging the biosensor tips for 40 seconds in wells containing 2 μg/mL of Artemin mAb. […] All the Artemin and Artemin mAb samples were prepared in HBS-EBT buffer. The real-time binding response was monitored during the entire course of the experiment and the binding response at the end of every step was recorded.

hArtemin-MMH [12] = biological target: T1, hArtemin-MMH; assay: as above
Description: as §3

MfArtemin-MMH [13] = biological target: T3, MfArtemin-MMH; assay: as above
Description: as §3

hArtemin-MMH [14] = biological target: T1, hArtemin-MMH; assay: blocking ELISA, antibody blocks 75 pM hARTN.mmh binding to plate-coated hGFRa3.hFc
Description: (§4) Experiments were carried out using the following procedures. Plates were coated with hGFRa3.hFc at 2 μg/ml in PBS on a 96-well microtiter plate at 4° C. overnight for all three assays. […] In other microtiter plates, a constant amount of either 75 pM hARTN.mmh, 400 pM mfARTN.mmh, or 150 pM msARTN.mmh were separately bound with anti-ARTN antibodies and an irrelevant IgG4 antibody control at a serial dilution series from 0.0017 nM to 100 nM in PBS+0.5% BSA. After a one-hour incubation, the mixture solutions were transferred to microtiter plates coated with hGFRa3.hFc. After one hour of incubation at RT, the wells were washed with PBST, and plate-bound ARTN was detected with an anti-penta-His antibody conjugated with horseradish peroxidase (HRP) (Qiagen). The plates were then developed using TMB substrate solution (BD Biosciences, #555214) according to manufacturer's recommendation and absorbance at 450 nm was measured on a Victor X5 plate reader.
(§5) Binding data were analyzed using a sigmoidal dose-response model within Prism™ software (GraphPad). […] If the calculated IC50 value was below the LLOA, less than LLOA was reported. Percent blocking at 100 nM antibody was calculated based on the background-corrected binding signal observed at the highest antibody concentration tested using the formula listed below and reported for all tested antibodies: […]

mArtemin-MMH [15] = biological target: T2, mArtemin-MMH; assay: BLI (Octet HTX), mAb captured on AHC tips, artemin at 15 nM, 25 C
Description: as §3

hArtemin-MMH [16] = biological target: T1, hArtemin-MMH; assay: as above
Description: as §3

MfArtemin-MMH [17] = biological target: T3, MfArtemin-MMH; assay: as above
Description: as §3

mArtemin-MMH [18] = biological target: T2, mArtemin-MMH; assay: BLI (Octet HTX), mAb captured on AHC tips, artemin at 7.5 nM, 25 C
Description: as §3

hArtemin-MMH [19] = biological target: T1, hArtemin-MMH; assay: as above
Description: as §3

MfArtemin-MMH [20] = biological target: T3, MfArtemin-MMH; assay: as above
Description: as §3

mArtemin-MMH [21] = biological target: T2, mArtemin-MMH; assay: BLI (Octet HTX), mAb captured on AHC tips, artemin at 30 nM, 25 C
Description: as §3

hArtemin-MMH [22] = biological target: T1, hArtemin-MMH; assay: as above
Description: as §3

MfArtemin-MMH [23] = biological target: T3, MfArtemin-MMH; assay: as above
Description: as §3

mArtemin-MMH [24] = biological target: T2, mArtemin-MMH; assay: blocking ELISA, antibody blocks 150 pM msARTN.mmh binding to plate-coated hGFRa3.hFc
Description: as §4, §5

MfArtemin-MMH [25] = biological target: T3, MfArtemin-MMH; assay: cell-based or functional assay
MfArtemin-MMH [26] = biological target: T3, MfArtemin-MMH; assay: blocking ELISA, antibody blocks 400 pM mfARTN.mmh binding to plate-coated hGFRa3.hFc
Description: as §4, §5

Max inhibition (%), SRE-luciferase reporter, 3 nM mfArtemin [1]: 10%
% Blocking with 100 nM Ab [2]: -28%
% Blocking with 100 nM Ab (hArtemin-MMH [3]): -3%
60 nM Artemin mAb Bound (RU) (hArtemin-MMH [4]): 0 RU
% Blocking with 100 nM Ab (mArtemin-MMH [5]): -31%
60 nM Artemin mAb Bound (RU) (mArtemin-MMH [6]): 0 RU
Max inhibition (%), SRE-luciferase reporter, 1 nM mArtemin (mArtemin-MMH [7]): 1%
Max inhibition (%), SRE-luciferase reporter, 500 pM hArtemin (hArtemin-MMH [8]): 9%
60 nM Artemin mAb Bound (RU) [9]: 0 RU
Molecule: Isotype Control mAb (antibody)

60 nM Artemin mAb Bound (RU) (MfArtemin-MMH [10]): 3 RU
Artemin Binding Response (nm) (mArtemin-MMH [11]): 0.02 nm
Artemin Binding Response (nm) (hArtemin-MMH [12]): 0.02 nm
Artemin Binding Response (nm) (MfArtemin-MMH [13]): 0 nm
60 nM Artemin mAb Bound (RU) (hArtemin-MMH [4]): 4 RU
Kd (hArtemin-MMH [4]): 2.22 nM
koff (hArtemin-MMH [4]): 0.00019 s⁻¹
kon (hArtemin-MMH [4]): 85300 M⁻¹ s⁻¹
t½ (hArtemin-MMH [4]): 1.02 h
% Blocking with 100 nM Ab (hArtemin-MMH [14]): 65%
IC50 (hArtemin-MMH [14]): 0.505 nM
Artemin Binding Response (nm) (mArtemin-MMH [15]): 0.07 nm
Artemin Binding Response (nm) (hArtemin-MMH [16]): 0.11 nm
Artemin Binding Response (nm) (MfArtemin-MMH [17]): 0.04 nm
Artemin Binding Response (nm) (mArtemin-MMH [18]): 0.05 nm
Artemin Binding Response (nm) (hArtemin-MMH [19]): 0.07 nm
Artemin Binding Response (nm) (MfArtemin-MMH [20]): 0 nm
Artemin Binding Response (nm) (mArtemin-MMH [21]): 0.08 nm
Artemin Binding Response (nm) (hArtemin-MMH [22]): 0.11 nm
Artemin Binding Response (nm) (MfArtemin-MMH [23]): 0.09 nm
% Blocking with 100 nM Ab (mArtemin-MMH [24]): 63%
IC50 (mArtemin-MMH [24]): 0.0876 nM
60 nM Artemin mAb Bound (RU) (mArtemin-MMH [6]): 3 RU
Max inhibition (%), SRE-luciferase reporter, 1 nM mArtemin (mArtemin-MMH [7]): 95%
Max inhibition (%), SRE-luciferase reporter, 500 pM hArtemin (hArtemin-MMH [8]): 100%
Max inhibition (%), SRE-luciferase reporter, 3 nM mfArtemin (MfArtemin-MMH [25]): 100%
% Blocking with 100 nM Ab (MfArtemin-MMH [26]): 71%
IC50 (MfArtemin-MMH [26]): 0.233 nM
B1: H4H33335P (antibody, human IgG4 S228P, kappa, V domains shown)
VH: EVQLVESGGGLVQPGGSLRLSCAASGFTFSSYDMHWVRQATGKGLEWVSTIDTAGDTYYPGSVKGRFTISRENAKNSLYLQMNSLRAGDTAVYYCARDGELELQGYFDLWGRGTLVTVSS
VL: DIQMTQSPSSLSASVGDRVTITCRASQIISIYLNWYQQKPGKAPKLLIYAASSLQSGVPSRFSGSGSGTDFTLTISSLQPEDFATYYCQQSYTTPLTFGGGTKVEIKR
notes: Fully human antibody; also called Artemin mAb; anti-ARTN antibody

— US20240352111A1 (Regeneron, published 2024)
